We go through 16 molecules from patent US20170015742A1 (published 2017).

Where a chain is given by its changes, count along the chain named.

To fix the notation:
B1: CL-32416-IgG (antibody, V domains shown)
VH: EVQLVQSGSELKKPGASVKVSCKASGYTFTDYGMYWVRQAPGQGLEWMGWIDTETGEPTYADDFKGRFVFSLDTSVSTAYLQISSLKAEDTAVYYCARTNYYYRSYMFYFDYWGQGTMVTVSS
VL: EIVLTQSPATLSLSPGERATLSCRASESVSTHMHWYQQKPGQAPRLLIYGASNLESGVPARFSGSGSGTDFTLTISSLEPEDFAVYFCQQSWNDPFTFGQGTKLEIK
notes: also called h4G8 CL-32416
B2: CL-34455-IgG (antibody, V domains shown)
VH: B1 VH with D31N, D62Q, D63G, K65T, R104P
VL: B1 VL with E27Q, S30G, N53K, F87Y, N93Y, F96L
notes: also called h4G8 CL-34455
B3: CL-34565-IgG (antibody, V domains shown)
VH: B1 VH with E57D, S105N
VL: B1 VL with S22F, E27Q, T31N, N53I, F87Y, N93Y, F96I
notes: also called h4G8 CL-34565
B4: CL-34522-IgG (antibody, V domains shown)
VH: B1 VH with T30E, D31N, R104S
VL: B1 VL with E27Q, S30G, N53K, F87Y, N93Y, F96L
notes: also called h4G8 CL-34522
B5: CL-34633-IgG (antibody, V domains shown)
VH: B1 VH with T30S
VL: B1 VL with E27Q, N93Y, F96L
notes: also called h4G8 CL-34633
B6: CL-34570-IgG (antibody, V domains shown)
VH: B1 VH with T30D, E57T, R104S
VL: B1 VL with E27Q, V58I, F87Y, N93Y, F96L
notes: also called h4G8 CL-34570
B7: CL-34469-IgG (antibody, V domains shown)
VH: B1 VH with D31N
VL: B1 VL with E27Q, F87Y, N93Y, F96L
notes: also called h4G8 CL-34469
B8: CL-34475-IgG (antibody, V domains shown)
VH: B1 VH with R104S
VL: B1 VL with E27Q, V58I, F87Y, N93Y, F96L
notes: also called h4G8 CL-34475
B9: CL-34540-IgG (antibody, V domains shown)
VH: B1 VH with E57Q
VL: B1 VL with S30G, T31K, G50A, F87Y, N93Y, F96L
notes: also called h4G8 CL-34540
B10: CL-34449-IgG (antibody, V domains shown)
VH: B1 VH
VL: B1 VL with E27Q, S30G, N53H, V58I, F87Y, S91T, N93Y, F96L
notes: also called h4G8 CL-34449
B11: CL-34538-IgG (antibody, V domains shown)
VH: B1 VH with R104P
VL: B1 VL with E27Q, S91T, N93Y, F96L
notes: also called h4G8 CL-34538
B12: 4G8.3-SL-9E8.4E anti-VEGF-A/anti-PDGF-BB DVD-Ig (PR-1575834) (bispecific antibody, human IgG1, kappa, L234A L235A)
heavy: EVQLVQSGSELKKPGASVKVSCKASGYTFTNYGMYWVRQAPGQGLEWMGWINTETGKPTYADDFKGRFVFSLDTSVSTAYLQISSLKAEDTAVYYCARTNYYYRSYIFYFDYWGQGTMVTVSSASTKGPEVTLRESGPALVKPTQTLTLTCTFSGFSLSTYGMGVGWIRQPPGKALEWLANIWWDDDKYYNPSLKNRLTISKDTSKNQVVLTMTNMDPVDTATYYCARIESIGTTYSFDYWGQGTMVTVSSASTKGPSVFPLAPSSKSTSGGTAALGCLVKDYFPEPVTVSWNSGALTSGVHTFPAVLQSSGLYSLSSVVTVPSSSLGTQTYICNVNHKPSNTKVDKKVEPKSCDKTHTCPPCPAPEAAGGPSVFLFPPKPKDTLMISRTPEVTCVVVDVSHEDPEVKFNWYVDGVEVHNAKTKPREEQYNSTYRVVSVLTVLHQDWLNGKEYKCKVSNKALPAPIEKTISKAKGQPREPQVYTLPPSREEMTKNQVSLTCLVKGFYPSDIAVEWESNGQPENNYKTTPPVLDSDGSFFLYSKLTVDKSRWQQGNVFSCSVMHEALHNAYTQKSLSLSPGK
light: DTVLTQSPATLSLSPGERATLSCRASESVSTHMHWYQQKPGQAPRLLIYGASNLESGVPARFSGSGSGTDFTLTISSLEPEDFAVYFCQQSWNDPFTFGQGTKLEIKRTVAAPSVFIFPPEFVLTQSPGTLSLSPGERATLSCERSSGDIGESYVSWYQQKPGQAPRLVIYADDQRPSGIPDRFSGSGSGTDFTLTISRLEPEDFAVYYCQSYDINIDIVFGGGTKVEIKRTVAAPSVFIFPPSDEQLKSGTASVVCLLNNFYPREAKVQWKVDNALQSGNSQESVTEQDSKDSTYSLSSTLTLSKADYEKHKVYACEVTHQGLSSPVTKSFNRGEC
B13: BDI-5G2-F9 (antibody, V domains shown)
VH: QVTLKESGPGILQPSQTLSLTCTFSGFSLSTFGMGVGWIRQPSGKGLEWLANIWWDDDKYYNPSLKNRLTISKDTSNSQAFLEITNVDTADTATYYCARISTGISSYYVMDAWGQGASVTVSS
VL: QFTLTQPKSVSGSLRSTITIPCERSSGDIGDTYVSWYQQHLGRPPINVIYGNDQRPSEVSDRFSGSIDSSSNSASLTITNLQMDDEADYFCQSYDSDIDIVFGGGTKLTVL
B14: BDI-5H1-F6 (antibody, V domains shown)
VH: B13 VH
VL: B13 VL
B15: BEW-164-C4 (antibody, IgG2b, V domains shown)
VH: QIQLVQSGPELKKPGESVKISCKASGYSFTNYGMYWVKQAPGQGLQYMGWIDTETGKPTYTDDFKGRFVFFLETSASTAYLQINNLKNEDMATYFCARWSGDTAGIRGPWFAYWGQGTLVTVSS
VL: DIRMTQSPASLSASLGETVNIECLASEDIYSDLAWYQQKPGKSPQLLIYNANDLQKGVPSRFSGSGSGTQYSLKINSLQSEDVATYFCQQYNYYPGTFGAGTKLELK
notes: Rat hybridoma antibody, isotype IgG2b/kappa; also called BEW-1B4-C4
B16: BEW-9E10-E7 (antibody, IgG2a, V domains shown)
VH: B15 VH with V5L, S28T, K57R, T61A, A104T
VL: B15 VL with K42R, D53G, K56N, S63G, Y94F
notes: Rat hybridoma antibody, isotype IgG2a/kappa

T2 sequence (P01127 82-190 limits assumed): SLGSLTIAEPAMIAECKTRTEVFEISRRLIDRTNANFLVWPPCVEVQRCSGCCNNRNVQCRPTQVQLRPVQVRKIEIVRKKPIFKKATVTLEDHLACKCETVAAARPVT
Chain of recombinant murine PDGF-BB (P31240 82-190 limits assumed): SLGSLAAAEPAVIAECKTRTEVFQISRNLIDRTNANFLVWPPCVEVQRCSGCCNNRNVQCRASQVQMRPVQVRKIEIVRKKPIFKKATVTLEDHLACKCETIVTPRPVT

The target in the first assay is T1, recombinant human VEGF165 (human, UniProt P15692 207-395). Kind of assay: cell-based or functional assay.
T1 sequence (P15692 other isoform, or with tags, fused parts or gaps limits assumed): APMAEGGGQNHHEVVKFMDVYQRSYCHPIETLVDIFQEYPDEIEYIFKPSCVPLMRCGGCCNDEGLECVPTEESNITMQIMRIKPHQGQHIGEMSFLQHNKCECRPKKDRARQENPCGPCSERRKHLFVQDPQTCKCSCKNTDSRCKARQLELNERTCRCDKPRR
For B1, the “hVEGF165 IC50 (nM), Potency HMVEC-d (hVEGF165-induced proliferation)” value (“hVEGF165 IC50 (nM), Potency HMVEC-d” below) is 0.117 nM.

Take B2: the “hVEGF165 IC50 (nM), Potency HMVEC-d” value was 0.105 nM.

For B3, the “hVEGF165 IC50 (nM), Potency HMVEC-d” value came out at 0.126 nM.

For B4, the “hVEGF165 IC50 (nM), Potency HMVEC-d” value was found to be 0.116 nM.

Take B5: the “hVEGF165 IC50 (nM), Potency HMVEC-d” value was 0.138 nM.

On to B6, for which the “hVEGF165 IC50 (nM), Potency HMVEC-d” value came to 0.11 nM.

For B7, the “hVEGF165 IC50 (nM), Potency HMVEC-d” value came to 0.094 nM.

With B8, the “hVEGF165 IC50 (nM), Potency HMVEC-d” value amounted to 0.106 nM.

Take B9: the “hVEGF165 IC50 (nM), Potency HMVEC-d” value is 0.139 nM.

With B10, the “hVEGF165 IC50 (nM), Potency HMVEC-d” value is 0.077 nM.

On to B11, for which the “hVEGF165 IC50 (nM), Potency HMVEC-d” value amounted to 0.127 nM.

The next assay addresses recombinant murine PDGF-BB (mouse, UniProt P31240 82-190). Kind of assay: cell-based or functional assay.
As for B12, the “Potency IC50 (nM) mPDGF-BB (NIH-3T3 proliferation)” value was determined as 0.772 nM.

The next assay concerns the target T2, Human PDGF-BB (human, UniProt P01127 82-190).
T2 construct: Recombinant human PDGF-BB, a dimer of two B chains; also called huPDGF-BB; hPDGF-BB
Put plainly: Biacore SPR (Example 1.1). As for the experimental part:
(§1) Unreacted moieties on the biosensor surface were blocked with ethanolamine. For kinetic analysis, rate equations derived from the 1:1 Langmuir binding model were fitted simultaneously to multiple antigen injections (using global fit analysis) with the use of Scrubber 2 (BioLogic Software), Biacore Biaevaluation 4.0.1 software or Biacore T100 Evaluation software. Purified antibodies or DVD-Ig molecules were diluted in running buffer for capture across goat anti-human Fc reaction surfaces. Antibodies or DVD-Ig molecules to be captured as a ligand (1 μg/ml) were injected over reaction matrices at a flow rate of 10 μl/minute. During the assay, all measurements were referenced against the capture surface alone (i.e., with no captured antibody or DVD-Ig molecule). […] The equilibrium dissociation constant KD (M) of the reaction between antibodies and the target antigen was then calculated from the kinetic rate constants by the following formula: KD=Koff/Kₒₙ. Binding was recorded as a function of time and kinetic rate constants were calculated. In this assay, on-rates as fast as 10⁶M⁻¹s⁻¹ and off-rates as slow as 10⁻⁶ s⁻¹ could be measured.
B13 had a Kd of no more than 0.0001 nM and a kon of no less than 1e+07 M⁻¹ s⁻¹.

In the case of B14, the Kd was no more than 0.0001 nM and the kon is no less than 1e+07 M⁻¹ s⁻¹.

In the next assay the target is T3, Human VEGF-A 165 (human, UniProt P15692 207-395).
T3 construct: Recombinant; also called huVEGF-A165; hVEGF165
T3 sequence (P15692 other isoform, or with tags, fused parts or gaps limits assumed): as above
Kind of assay: receptor competition ELISA, hVEGF165 binding to coated hVEGF-R2-Fc. Here is the method: (§2) To identify molecules that could block the binding of hVEGF₁₆₅ to the hVEGF-R2 (KDR/Flk-1) receptor, a competition ELISA was performed. […] Plates were then washed four times with wash buffer (TBS, 0.05% Tween-20) and blocked with Superblock blocking buffer (Thermo Scientific, cat#37535). […] The pre-incubated sample/hVEGF₁₆₅ complex was added to the coated plate at 50 μL in duplicate and incubated for 30 minutes at 25° C. with shaking. Following incubation, plates were washed four times with wash buffer. Streptavidin-polyHRP-40 (Fitzgerald cal#65r-s104phrp) was diluted in assay diluent (10% Superblock containing 0.05% surfactamps) and added to plates (50 μL) for 45 minutes at 25° C. with shaking. Plates were washed four times with wash buffer and developed with the addition of Enhanced K-blue TMB substrate (Neogen cat#308177). The reaction was stopped with 2N sulfuric acid (VWR, cat# BDH3500-1) and the absorbance was read at 450 nm-570 nm. A decrease in observed optical density indicates the test molecule is blocking the hVEGF₁₆₅ binding to the hVEGF-R2-Fc. Data was analyzed using Softmax Pro 4.8 software and IC₅₀ values calculated using a sigmoidal dose response (variable slope) fit in GraphPad Prism 5.
Anti-VEGF-A antibodies derived from rat hybridomas were characterized for binding, function and cross-reactivity in a panel of assays. Supernatants were tested for the ability to bind hVEGF₁₆₅ (Example 1.3) and block binding of hVEGF₁₆₅ to hVEGFR2 in a competition ELISA format (Example 1.4).
The molecule B15 came in with an IC50 of 0.18 nM.

For B16, the half-maximal inhibitory concentration (IC50) was 0.274 nM.

A further assay addresses T1, recombinant human VEGF165. Kind of assay: SPR (Biacore), antibody captured by anti-human Fc, hVEGF165 in solution. Here is the method: as §1
(§3) Affinity matured humanized anti-VEGF antibodies were characterized for hVEGF₁₆₅ binding and potency. Binding affinity of these molecules to hVEGF₁₆₅ was determined by Biacore analysis (Example 1.1). Potency was evaluated in both cell-based and ELISA formats. The ability to block binding of hVEGF₁₆₅ to hVEGFR2 was evaluated in a competition ELISA (Example 1.4) Inhibition of hVEGF₁₆₅-induced cell proliferation was assessed using HMVEC-d cells (Example 1.10).
Consider B1, for which the Kd came out at 0.00054 nM and the kon turned out to be 2e+07 M⁻¹ s⁻¹.

As for B2, the Kd was determined as 0.00046 nM and the kon is 2.2e+07 M⁻¹ s⁻¹.

In the case of B3, the Kd is 0.0004 nM and the kon came to 2e+07 M⁻¹ s⁻¹.

As for B4, the Kd turned out to be 0.00053 nM and the kon worked out at 2e+07 M⁻¹ s⁻¹.

On to B5, for which the Kd amounted to 0.00024 nM and the kon was 1.7e+07 M⁻¹ s⁻¹.

For the molecule B6, the Kd is 0.00029 nM and the kon was found to be 1.9e+07 M⁻¹ s⁻¹.

B7: the Kd is 0.00062 nM and the kon came to 1.5e+07 M⁻¹ s⁻¹.

On to B8, for which the Kd amounted to 0.00052 nM and the kon stood at 2.7e+07 M⁻¹ s⁻¹.

Consider B9, for which the Kd turned out to be 0.00085 nM and the kon was determined as 8.4e+06 M⁻¹ s⁻¹.

Take B10: the Kd was 0.00085 nM and the kon was found to be 1.1e+07 M⁻¹ s⁻¹.

In the case of B11, the Kd was found to be 0.00024 nM and the kon stood at 3.3e+07 M⁻¹ s⁻¹.

The target in a further assay is T1, recombinant human VEGF165. Kind of assay: competition ELISA: antibody titrated against biotinylated hVEGF165, binding to plate-coated hVEGF-R2-Fc. Here is the method: as §2, §3
Regarding B1, the IC50 is less than 0.1 nM.

Regarding B2, the IC50 was less than 0.1 nM.

Turning to B3, the IC50 is less than 0.1 nM.

B4: the IC50 is less than 0.1 nM.

Regarding B5, the IC50 is less than 0.1 nM.

Take B6: the IC50 was less than 0.1 nM.

Regarding B7, the IC50 is less than 0.1 nM.

In the case of B8, the IC50 is less than 0.1 nM.

For the molecule B9, the IC50 was less than 0.1 nM.

As to B10, the IC50 was less than 0.1 nM.

As to B11, the IC50 was less than 0.1 nM.
